Source: patent US20260242478A1 (published 2026)
Where no end group is shown, it is not given here.

B1: Phage-803 (peptide)
peptide: YCEGHAAEYMWKCL
modifications: cysteine pairing not given here; also: displayed on phage by fusion to pIII, pIII and linker sequence not given here
notes: Clonal phage of the Peptide-87 library; not shown: fused to the pIII filament protein of the bacteriophage
B2: Phage-812 (peptide)
peptide: YCAGHSSEYIWKCL
modifications: cysteine pairing not given here; also: displayed on phage by fusion to pIII, pIII and linker sequence not given here
notes: as for B1
B3: Phage-807 (peptide)
peptide: YCDGHLPLYMHKCL
modifications: cysteine pairing not given here; also: displayed on phage by fusion to pIII, pIII and linker sequence not given here
notes: as for B1
B4: Phage-802 (peptide)
peptide: YCDGHSSEYIVKCL
modifications: cysteine pairing not given here; also: displayed on phage by fusion to pIII, pIII and linker sequence not given here
notes: as for B1
B5: Phage-808 (peptide)
peptide: YCEGHAPQYLNKCL
modifications: cysteine pairing not given here; also: displayed on phage by fusion to pIII, pIII and linker sequence not given here
notes: as for B1
B6: Phage-810 (peptide)
peptide: YCDGHTEEYMDKCL
modifications: cysteine pairing not given here; also: displayed on phage by fusion to pIII, pIII and linker sequence not given here
notes: as for B1
B7: Phage-813 (peptide)
peptide: YCEGHSAEFMTKCL
modifications: cysteine pairing not given here; also: displayed on phage by fusion to pIII, pIII and linker sequence not given here
notes: as for B1
B8: Phage-811 (peptide)
peptide: YCDGHSSMYMAKCL
modifications: cysteine pairing not given here; also: displayed on phage by fusion to pIII, pIII and linker sequence not given here
notes: as for B1
B9: Phage-809 (peptide)
peptide: YCDGHAREYMTKCL
modifications: cysteine pairing not given here; also: displayed on phage by fusion to pIII, pIII and linker sequence not given here
notes: as for B1
B10: Phage-801 (peptide)
peptide: YCDGHLPMYFAKCM
modifications: cysteine pairing not given here; also: displayed on phage by fusion to pIII, pIII and linker sequence not given here
notes: as for B1
B11: Phage-806 (peptide)
peptide: YCDGHSAEYMEKCI
modifications: cysteine pairing not given here; also: displayed on phage by fusion to pIII, pIII and linker sequence not given here
notes: as for B1
B12: Phage-804 (peptide)
peptide: YCEGHSAEYIFKCL
modifications: cysteine pairing not given here; also: displayed on phage by fusion to pIII, pIII and linker sequence not given here
notes: as for B1
B13: Phage-805 (peptide)
peptide: YCEGHSPMYMQKCM
modifications: cysteine pairing not given here; also: displayed on phage by fusion to pIII, pIII and linker sequence not given here
notes: as for B1

Columns and labels:
[1] = target: Anti-CD28 Fab (SEQ ID NOs: 696, 697); test: phage binding ELISA; biotinylated anti-CD28 Fab on neutravidin plate, clonal phage supernatant, anti-M13 HRP detection
Target sequence in this assay (VH, as listed by the source, chain 1 of 2): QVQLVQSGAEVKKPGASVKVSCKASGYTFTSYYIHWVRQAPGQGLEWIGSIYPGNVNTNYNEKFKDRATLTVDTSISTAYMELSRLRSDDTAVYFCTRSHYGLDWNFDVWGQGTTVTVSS
Target sequence in this assay (VL, as listed by the source, chain 2 of 2): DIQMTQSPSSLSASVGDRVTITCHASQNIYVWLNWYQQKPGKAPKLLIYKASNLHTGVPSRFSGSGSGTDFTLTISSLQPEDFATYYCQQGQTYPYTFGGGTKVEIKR
Description: (§1) After panning, phage infected bacteria were plated out and colonies picked into 96 well blocks. Clonal phage was then amplified and separated from bacterial cells via centrifugation.
(§2) Clonal phage were harvested as crude supematants and screened via standard ELISAs. […] Prior to the addition of clonal phage, wells were incubated with blocking buffer and CD28 antigen or blocking buffer alone. Without washing or aspirating, clonal phage supematants were then added to the wells and incubated for a short time. Wells were then washed followed by detection of bound phage using a horse radish conjugated anti-M13 antibody. Clonal phage of interest were then sent for sequence analysis.

[2] = target: Anti-CD28 Fab (SEQ ID NOs: 696, 697); test: phage binding ELISA; anti-CD28 Fab on plate pre-incubated with CD28 antigen as competitor, anti-M13 HRP detection
Target sequence in this assay (VH, as listed by the source, chain 1 of 2): as the sequence (VH, as listed by the source, chain 1 of 2) above
Target sequence in this assay (VL, as listed by the source, chain 2 of 2): as the sequence (VL, as listed by the source, chain 2 of 2) above
Description: as §1, §2

[3] = target: T1, Anti-CD28 Fab (SEQ ID NOs: 696, 697); test: phage binding ELISA; biotinylated Fab on neutravidin plate, clonal phage supernatant, anti-M13 HRP detection;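 note: phage from clones picked after panning, added to wells pre-incubated with blocking buffer with or without CD28 antigen, then briefly incubated and washed before detection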
T1 construct: Biotinylated and captured on neutravidin coated plates in the phage ELISA
T1 sequence (VH, as listed by the source, chain 1 of 2): as the sequence (VH, as listed by the source, chain 1 of 2) above
T1 sequence (VL, as listed by the source, chain 2 of 2): as the sequence (VL, as listed by the source, chain 2 of 2) above

[4] = target: T1, Anti-CD28 Fab (SEQ ID NOs: 696, 697); test: phage binding ELISA; Fab on plate pre-incubated with CD28 antigen as competitor, anti-M13 HRP detection;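 note: crude clonal phage supernatants screened by ELISA, with comparison wells pre-incubated in blocking buffer only, lacking CD28 antigen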
Description: as §1, §2

[5] = target: Anti-CD28 Fab (SEQ ID NOs: 696, 697); test: phage ELISA; clonal phage on biotinylated anti-CD28 Fab captured on neutravidin, anti-M13 HRP detection
Target sequence in this assay (VH, as listed by the source, chain 1 of 2): as the sequence (VH, as listed by the source, chain 1 of 2) above
Target sequence in this assay (VL, as listed by the source, chain 2 of 2): as the sequence (VL, as listed by the source, chain 2 of 2) above
Description: as §1, §2

[6] = target: Anti-CD28 Fab (SEQ ID NOs: 696, 697); test: phage ELISA on captured anti-CD28 Fab; competitor CD28 antigen pre-incubated in the wells;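 note: clonal phage supernatants added to wells preloaded with CD28 antigen in blocking buffer, control wells buffer only, bound phage read via HRP-linked anti-M13 antibody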
Target sequence in this assay (VH, as listed by the source, chain 1 of 2): as the sequence (VH, as listed by the source, chain 1 of 2) above
Target sequence in this assay (VL, as listed by the source, chain 2 of 2): as the sequence (VL, as listed by the source, chain 2 of 2) above

Binder | Anti-CD28 Fab signal (phage binding ELISA) [1] | Anti-CD28 Fab signal in the presence of CD28 (phage binding ELISA) [2] | Anti-CD28 Fab (SEQ ID NOs: 696, 697) signal [3] | Anti-CD28 Fab signal in the presence of CD28 [4] | also measured
YCDGHSWAYMWKCL [Phage-791] | 1.85 | 0.13 |  |  | 
YCDGHMPEYLAKCL [Phage-788] | 1.86 | 0.07 |  |  | 
YCEGHRPEYMAKCL [Phage-798] | 1.83 | 0.07 |  |  | 
B1 |  |  | 1.83 | 0.07 | 
YCDGHSAAYIMKCL [Phage-792] | 1.84 | 0.09 |  |  | 
YCDGHKAEYMEKCL [Phage-816 (Peptide-87 library peptide, SEQ ID NO: 1132)] |  |  |  |  | Phage binding ELISA, Anti-CD28 Fab signal [5]: 1.81; Phage binding ELISA, Anti-CD28 Fab signal in the presence of CD28 [6]: 0.09
YCEGHLQIYMSKCL [Phage-796] | 1.84 | 0.14 |  |  | 
YCAGHLPMYMAKCL [Phage-817 (Peptide-87 library peptide, SEQ ID NO: 1133)] |  |  |  |  | Phage binding ELISA, Anti-CD28 Fab signal [5]: 1.8; Phage binding ELISA, Anti-CD28 Fab signal in the presence of CD28 [6]: 0.08
YCEGHAAEYMSKCL [Phage-789] | 1.86 | 0.07 |  |  | 
B2 |  |  | 1.82 | 0.06 | 
B3 |  |  | 1.82 | 0.07 | 
YCAGHSSEYMWKCL [Phage-790] | 1.85 | 0.07 |  |  | 
B4 |  |  | 1.83 | 0.06 | 
YCAGHAPEYMFKCM [Phage-797] | 1.83 | 0.06 |  |  | 
B5 |  |  | 1.82 | 0.08 | 
YCDGHSPAYMAKCL [Phage-800] | 1.83 | 0.1 |  |  | 

Binder | Anti-CD28 Fab signal (phage binding ELISA) [1] | Anti-CD28 Fab signal in the presence of CD28 (phage binding ELISA) [2] | Anti-CD28 Fab (SEQ ID NOs: 696, 697) signal [3] | Anti-CD28 Fab signal in the presence of CD28 [4] | also measured
YCEGHLPEYMRKCL [Phage-799] | 1.83 | 0.06 |  |  | 
YCAGHLPEYLSKCL [Phage-795] | 1.84 | 0.07 |  |  | 
YCDGHTREYIDKCL [Phage-818 (Peptide-87 library peptide, SEQ ID NO: 1134)] |  |  |  |  | Phage binding ELISA, Anti-CD28 Fab signal [5]: 1.8; Phage binding ELISA, Anti-CD28 Fab signal in the presence of CD28 [6]: 0.08
B6 |  |  | 1.82 | 0.09 | 
YCAGHLPQYMNKCL [Phage-815 (Peptide-87 library peptide, SEQ ID NO: 1131)] |  |  |  |  | Phage binding ELISA, Anti-CD28 Fab signal [5]: 1.81; Phage binding ELISA, Anti-CD28 Fab signal in the presence of CD28 [6]: 0.06
B7 |  |  | 1.81 | 0.06 | 
B8 |  |  | 1.82 | 0.06 | 
B9 |  |  | 1.82 | 0.06 | 
YCDGHSLQYLGKCL [Phage-793] | 1.84 | 0.09 |  |  | 
YCQGHSAEYMMKCL [Phage-814 (Peptide-87 library peptide, SEQ ID NO: 1130)] |  |  |  |  | Phage binding ELISA, Anti-CD28 Fab signal [5]: 1.81; Phage binding ELISA, Anti-CD28 Fab signal in the presence of CD28 [6]: 0.07
B10 |  |  | 1.83 | 0.06 | 
YCEGHSQEYMQKCL [Phage-794] | 1.84 | 0.05 |  |  | 
B11 |  |  | 1.83 | 0.07 | 
B12 |  |  | 1.83 | 0.05 | 
B13 |  |  | 1.83 | 0.06 | 
